Laboratory results published in patent US20220411520A1 (GMAX BIOPHARM, published 2022).

What was measured:
[1] = target: human GLP-1 receptor (hGLP-1R) (human, UniProt P43220 24-463); assay: cell-based or functional assay
[2] = target: T1, human gastric inhibitory polypeptide receptor (hGIPR) (human) (UniProt P48546); assay: cell-based or functional assay
T1 sequence: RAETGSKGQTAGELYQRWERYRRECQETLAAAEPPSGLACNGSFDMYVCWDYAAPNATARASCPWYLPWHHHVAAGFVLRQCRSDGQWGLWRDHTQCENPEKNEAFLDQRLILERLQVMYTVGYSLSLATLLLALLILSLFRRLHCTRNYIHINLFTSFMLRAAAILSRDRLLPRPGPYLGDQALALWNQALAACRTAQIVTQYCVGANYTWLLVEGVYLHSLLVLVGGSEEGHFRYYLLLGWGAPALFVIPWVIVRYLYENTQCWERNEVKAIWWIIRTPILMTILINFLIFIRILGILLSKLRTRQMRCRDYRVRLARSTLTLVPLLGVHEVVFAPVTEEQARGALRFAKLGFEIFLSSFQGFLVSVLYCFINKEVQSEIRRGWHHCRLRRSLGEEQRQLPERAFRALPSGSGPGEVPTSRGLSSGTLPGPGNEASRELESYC

[3] = target: T2, human gastric inhibitory polypeptide receptor (hGIPR) (human, UniProt P48546 22-466); assay: cell-based or functional assay
T2 sequence: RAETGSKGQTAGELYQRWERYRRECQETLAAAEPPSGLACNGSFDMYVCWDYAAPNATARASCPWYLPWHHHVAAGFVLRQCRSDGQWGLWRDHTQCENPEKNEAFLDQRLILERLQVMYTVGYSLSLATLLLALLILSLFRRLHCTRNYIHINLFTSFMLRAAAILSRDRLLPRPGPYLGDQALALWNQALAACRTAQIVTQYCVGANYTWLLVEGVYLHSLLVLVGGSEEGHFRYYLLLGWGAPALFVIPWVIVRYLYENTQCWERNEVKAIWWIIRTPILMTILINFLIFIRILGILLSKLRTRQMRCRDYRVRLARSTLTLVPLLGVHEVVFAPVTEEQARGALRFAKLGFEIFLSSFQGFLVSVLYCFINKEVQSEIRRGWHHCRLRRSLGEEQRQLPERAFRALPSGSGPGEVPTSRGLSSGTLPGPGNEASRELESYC

[4] = target: T2, human gastric inhibitory polypeptide …; assay: FACS on CHO-DHFR-hGIPR cells
Description: PBS containing 10 mM EDTA was used to detach the CHO-DHFR-hGIPR cells and 10⁵ cells/tube was distributed into 1.5 mL EP tubes, and the supernatant was removed after centrifugation. The negative control sample was resuspended with a loading buffer (PBS, 2% FBS). For the positive control, 200 μL GIPR antibody solution of specific concentration was added to the cells and incubated at room temperature; after incubation, the cells were then centrifuged at 1500 rpm to remove the supernatant, washed with a FACS loading buffer and centrifuged again. The cells were resuspended with addition (200 μL/well) of a FITC labeled goat anti-mouse fluorescent antibody or PE labeled goat anti-human fluorescent antibody at 1:50 dilution and incubated at room temperature for 30 min in the dark. The supernatant was removed after centrifugation, and cells were washed with FACS loading buffer, centrifuged again and resuspended with the loading buffer for FACS analysis. The recombinant anti-hGIPR functional antibody specifically binds to GIPR-expressing CHO-DHFR-GIPR cells.

[5] = target: T3, monkey GIP receptor (maGIPR) (monkey, UniProt P48546 22-466 (human entry), limits assumed); assay: cell-based or functional assay
T3 chain: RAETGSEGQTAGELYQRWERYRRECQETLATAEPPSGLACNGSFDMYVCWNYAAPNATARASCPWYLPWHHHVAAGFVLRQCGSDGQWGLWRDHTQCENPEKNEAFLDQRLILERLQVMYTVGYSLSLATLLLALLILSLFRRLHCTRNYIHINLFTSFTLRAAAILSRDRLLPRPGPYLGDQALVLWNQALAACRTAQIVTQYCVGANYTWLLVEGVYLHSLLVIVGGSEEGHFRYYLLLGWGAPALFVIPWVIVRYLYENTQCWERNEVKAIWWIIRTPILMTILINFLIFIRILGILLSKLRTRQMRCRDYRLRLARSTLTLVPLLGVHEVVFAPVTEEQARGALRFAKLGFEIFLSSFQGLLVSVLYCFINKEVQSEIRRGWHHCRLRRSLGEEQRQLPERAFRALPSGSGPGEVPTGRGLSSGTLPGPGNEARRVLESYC

B1: GIPR antibody/GLP-1 fusion protein GLP-1-Linker-L7H6 (protein, part only; not given: heavy and light constant regions, not shown: a dimerising Fc or GST)
light, part: HGEGTFTSDVSSYLEGQAAKEFIAWLVKGGGGGSGGGGSGGGGSDIVLTQSPASLAVSPGQRATITCRASQSVNTAVYSYIHWYQQKPGQPPKLLIKYASNLESGVPARFSGSGSGTDFTLTINPVEANDAANYYCQHSFDFPYTFGGGTKVEIKR
heavy, part: QVQLQESGPGLVKPSQTLSLTCTVSGYSITSDYAWNWIRQPPGKGVEWMGYISYRGIATYKPSLKSRITISRDTSKNQFSLKLSSVTAADTAVYYCVRGEYGPGNFDFWGQGTTVTVSS
[1]
  reporter gene assay (CRE-Luciferase) in CHO-DHFR- cells co-expressing hGLP1R: activation (EC50): 0.04 nM
[2]
  direct cAMP assay: inhibition of GIP-activated hGIPR signaling in CHO-DHFR cells stably expressing human GIPR (IC50): 14.9 nM

B2: hGIPR antibody L7H6 (antibody, V domains shown)
VH: QVQLQESGPGLVKPSQTLSLTCTVSGYSITSDYAWNWIRQPPGKGVEWMGYISYRGIATYKPSLKSRITISRDTSKNQFSLKLSSVTAADTAVYYCVRGEYGPGNFDFWGQGTTVTVSS
VL: DIVLTQSPASLAVSPGQRATITCRASQSVNTAVYSYIHWYQQKPGQPPKLLIKYASNLESGVPARFSGSGSGTDFTLTINPVEANDAANYYCQHSFDFPYTFGGGTKVEIKR
[3]
  direct cAMP assay: inhibition of GIP-activated hGIPR signaling in CHO-DHFR cells stably expressing human GIPR (IC50): 7.6 nM

B3: hGIPR antibody L10H8 (antibody, V domains shown)
VH: QVQLQQSGAEVKKPGSSVKVSCKASGGTFSSYAISWVRQAPGQGLEWMGGIIPTFGTANYAQKFQGRVTITADESTSTAYMELSSLRSEDTAVYYCAQGPIVGAPTDYWGKGTLVTVSS
VL: SYVLTQPPSASGTPGQRVAISCSGSNSNIGSNTVHWYQQLPGAAPKLLIYSNNQRPSGVPDRFSGSNSGTSASLAISRLQSEDEADYYCAAWDDSLNGVVFGGGTKVTVL
notes: Recombinantly expressed whole antibody; also called recombinant anti-hGIPR functional antibody
[4]
  binding result: binds

B4: GIPR antibody/GLP-1 fusion protein GLP-1-Linker-V1W5 (other)
light: HGEGTFTSDVSSYLEGQAAKEFIAWLVKGGGGGSGGGGSGGGGSDIVLTQSPASLAVSPGQRATITCRASQSVNTAVYSYIHWYQQKPGQPPKLLIKYASNLESGVPARFSGSGSGTDFTLTINPVEANDAANYYCQHSFDFPYTFGGGTKVEIKRTVAAPSVFIFPPSDEQLKSGTASVVCLLNNFYPREAKVQWKVDNALQSGNSQESVTEQDSKDSTYSLSSTLTLSKADYEKHKVYACEVTHQGLSSPVTKSFNRGEC
heavy: QVQLQESGPGLVKPSQTLSLTCTVSGYSITSDYAWNWIRQPPGKGVEWMGYISYRGIATYKPSLKSRITISRDTSKNQFSLKLSSVTAADTAVYYCVRGEYGPGNFDFWGQGTTVTVSSASTKGPSVFPLAPCSRSTSESTAALGCLVKDYFPEPVTVSWNSGALTSGVHTFPAVLQSSGLYSLSSVVTVPSSSLGTKTYTCNVDHKPSNTKVDKRVESKYGPPCPPCPAPEAAGGPSVFLFPPKPKDTLYITREPEVTCVVVDVSQEDPEVQFNWYVDGVEVHNAKTKPREEQFNSTYRVVSVLTVLHQDWLNGKEYKCKVSNKGLPSSIEKTISKAKGQPREPQVYTLPPSQEEMTKNQVSLTCLVKGFYPSDIAVEWESNGQPENNYKTTPPVLDSDGSFFLYSRLTVDKSRWQEGNVFSCSVMHEALHNHYTQKSLSLSLG
[5]
  direct cAMP assay: inhibition of GIP-activated monkey GIPR signaling (IC50): 4.3 nM
[1]
  reporter gene assay (CRE-Luciferase) in CHO-DHFR- cells co-expressing hGLP-1R: activation (EC50): 0.0174 nM
[3]
  direct cAMP assay: inhibition of GIP-activated hGIPR signaling in CHO-DHFR cells stably expressing human GIPR (IC50): 7.03 nM
